Reference: patent US20260174888A1 (ARARIS BIOTECH, published 2026)
Read-outs that look alike come from different tables or passages of the source.

T1: CEACAM-5 (UniProt P06731 35-702, limits assumed)
T1 sequence (looked up): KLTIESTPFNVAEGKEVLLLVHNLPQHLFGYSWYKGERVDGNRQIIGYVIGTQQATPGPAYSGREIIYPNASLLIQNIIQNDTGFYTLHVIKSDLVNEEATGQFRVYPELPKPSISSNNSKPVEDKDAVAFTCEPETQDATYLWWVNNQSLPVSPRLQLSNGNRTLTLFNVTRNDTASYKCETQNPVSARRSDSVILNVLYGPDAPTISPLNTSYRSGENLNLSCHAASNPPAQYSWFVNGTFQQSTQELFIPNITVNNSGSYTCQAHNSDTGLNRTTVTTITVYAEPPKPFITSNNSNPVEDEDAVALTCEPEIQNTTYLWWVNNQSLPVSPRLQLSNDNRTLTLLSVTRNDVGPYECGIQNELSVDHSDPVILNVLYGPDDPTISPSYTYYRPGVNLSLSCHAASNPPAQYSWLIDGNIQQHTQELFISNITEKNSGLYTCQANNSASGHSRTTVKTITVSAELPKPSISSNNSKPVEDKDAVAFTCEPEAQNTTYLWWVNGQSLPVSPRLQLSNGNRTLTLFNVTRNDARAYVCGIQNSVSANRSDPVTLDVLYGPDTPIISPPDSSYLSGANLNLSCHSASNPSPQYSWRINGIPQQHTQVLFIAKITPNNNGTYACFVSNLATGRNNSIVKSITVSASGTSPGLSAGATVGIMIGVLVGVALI


Experiments:
[1] = target: T1, CEACAM-5; test: cell-based or functional assay
[2] = target: T1, CEACAM-5; test: cell-based or functional assay; remark: listed apart in the source

Binder	IC50 (nM), cytotoxicity on NCI-H2110 cells, CellTiterGlo viability, 96 hours [1] [nM]	IC50 (nM), cytotoxicity on NCI-H2110 cells, CellTiterGlo viability, 96 hours [2] [nM]
ARA-20-RKAA-PABC-MMAE (antibody, human IgG1, kappa, V domains shown, linker-payload RKAA-PABC-MMAE (FIG. 6) conjugated by MTG to the native, glycosylated antibody; conjugated residue not stated in the example) VH: EVQLVESGGGVVQPGRSLRLSCSASGFDFTTYWMSWVRQAPGKGLEWIGEIHPDSSTINYAPSLKDRFTISRDNAKNTLFLQMDSLRPEDTGVYFCASLYFGFPWFAYWGQGTPVTVSS VL: DIQLTQSPSSLSASVGDRVTITCKASQDVGTSVAWYQQKPGKAPKLLIYWTSTRHTGVPSRFSGSGSGTDFTFTISSLQPEDIATYYCQQYSLYRSFGQGTKVEIKR	30.2	
ARA-20-FA-PEG12-ARK-PABC-MMAE (antibody, human IgG1, kappa, V domains shown, linker-payload FA-PEG12-ARK-PABC-MMAE (FIG. 5) conjugated by MTG to the native, glycosylated antibody; conjugated residue not stated in the example) VH: EVQLVESGGGVVQPGRSLRLSCSASGFDFTTYWMSWVRQAPGKGLEWIGEIHPDSSTINYAPSLKDRFTISRDNAKNTLFLQMDSLRPEDTGVYFCASLYFGFPWFAYWGQGTPVTVSS VL: DIQLTQSPSSLSASVGDRVTITCKASQDVGTSVAWYQQKPGKAPKLLIYWTSTRHTGVPSRFSGSGSGTDFTFTISSLQPEDIATYYCQQYSLYRSFGQGTKVEIKR		27.8
ARA-20-FA-PEG24-RKAA-PABC-MMAE (antibody, human IgG1, kappa, V domains shown, linker-payload FA-PEG24-RKAA-PABC-MMAE (FIG. 3) conjugated by MTG to the native, glycosylated antibody; conjugated residue not stated in the example) VH: EVQLVESGGGVVQPGRSLRLSCSASGFDFTTYWMSWVRQAPGKGLEWIGEIHPDSSTINYAPSLKDRFTISRDNAKNTLFLQMDSLRPEDTGVYFCASLYFGFPWFAYWGQGTPVTVSS VL: DIQLTQSPSSLSASVGDRVTITCKASQDVGTSVAWYQQKPGKAPKLLIYWTSTRHTGVPSRFSGSGSGTDFTFTISSLQPEDIATYYCQQYSLYRSFGQGTKVEIKR	5.93	
ARA-20-FA-PEG12-RKAA-PABC-MMAE (antibody, human IgG1, kappa, V domains shown, linker-payload FA-PEG12-RKAA-PABC-MMAE (FIG. 4) conjugated by MTG to the native, glycosylated antibody; conjugated residue not stated in the example) VH: EVQLVESGGGVVQPGRSLRLSCSASGFDFTTYWMSWVRQAPGKGLEWIGEIHPDSSTINYAPSLKDRFTISRDNAKNTLFLQMDSLRPEDTGVYFCASLYFGFPWFAYWGQGTPVTVSS VL: DIQLTQSPSSLSASVGDRVTITCKASQDVGTSVAWYQQKPGKAPKLLIYWTSTRHTGVPSRFSGSGSGTDFTFTISSLQPEDIATYYCQQYSLYRSFGQGTKVEIKR	4.68	
ARA-20-ARK-PABC-MMAE (antibody, human IgG1, kappa, V domains shown, linker-payload ARK-PABC-MMAE conjugated by MTG to the native, glycosylated antibody; conjugated residue not stated in the example) VH: EVQLVESGGGVVQPGRSLRLSCSASGFDFTTYWMSWVRQAPGKGLEWIGEIHPDSSTINYAPSLKDRFTISRDNAKNTLFLQMDSLRPEDTGVYFCASLYFGFPWFAYWGQGTPVTVSS VL: DIQLTQSPSSLSASVGDRVTITCKASQDVGTSVAWYQQKPGKAPKLLIYWTSTRHTGVPSRFSGSGSGTDFTFTISSLQPEDIATYYCQQYSLYRSFGQGTKVEIKR		58
